Experiment [1] concerns the target T1, inactive BoNT/G (BoNT/Gi) (Clostridium botulinum, UniProt Q60393 1-1297).
T1 sequence: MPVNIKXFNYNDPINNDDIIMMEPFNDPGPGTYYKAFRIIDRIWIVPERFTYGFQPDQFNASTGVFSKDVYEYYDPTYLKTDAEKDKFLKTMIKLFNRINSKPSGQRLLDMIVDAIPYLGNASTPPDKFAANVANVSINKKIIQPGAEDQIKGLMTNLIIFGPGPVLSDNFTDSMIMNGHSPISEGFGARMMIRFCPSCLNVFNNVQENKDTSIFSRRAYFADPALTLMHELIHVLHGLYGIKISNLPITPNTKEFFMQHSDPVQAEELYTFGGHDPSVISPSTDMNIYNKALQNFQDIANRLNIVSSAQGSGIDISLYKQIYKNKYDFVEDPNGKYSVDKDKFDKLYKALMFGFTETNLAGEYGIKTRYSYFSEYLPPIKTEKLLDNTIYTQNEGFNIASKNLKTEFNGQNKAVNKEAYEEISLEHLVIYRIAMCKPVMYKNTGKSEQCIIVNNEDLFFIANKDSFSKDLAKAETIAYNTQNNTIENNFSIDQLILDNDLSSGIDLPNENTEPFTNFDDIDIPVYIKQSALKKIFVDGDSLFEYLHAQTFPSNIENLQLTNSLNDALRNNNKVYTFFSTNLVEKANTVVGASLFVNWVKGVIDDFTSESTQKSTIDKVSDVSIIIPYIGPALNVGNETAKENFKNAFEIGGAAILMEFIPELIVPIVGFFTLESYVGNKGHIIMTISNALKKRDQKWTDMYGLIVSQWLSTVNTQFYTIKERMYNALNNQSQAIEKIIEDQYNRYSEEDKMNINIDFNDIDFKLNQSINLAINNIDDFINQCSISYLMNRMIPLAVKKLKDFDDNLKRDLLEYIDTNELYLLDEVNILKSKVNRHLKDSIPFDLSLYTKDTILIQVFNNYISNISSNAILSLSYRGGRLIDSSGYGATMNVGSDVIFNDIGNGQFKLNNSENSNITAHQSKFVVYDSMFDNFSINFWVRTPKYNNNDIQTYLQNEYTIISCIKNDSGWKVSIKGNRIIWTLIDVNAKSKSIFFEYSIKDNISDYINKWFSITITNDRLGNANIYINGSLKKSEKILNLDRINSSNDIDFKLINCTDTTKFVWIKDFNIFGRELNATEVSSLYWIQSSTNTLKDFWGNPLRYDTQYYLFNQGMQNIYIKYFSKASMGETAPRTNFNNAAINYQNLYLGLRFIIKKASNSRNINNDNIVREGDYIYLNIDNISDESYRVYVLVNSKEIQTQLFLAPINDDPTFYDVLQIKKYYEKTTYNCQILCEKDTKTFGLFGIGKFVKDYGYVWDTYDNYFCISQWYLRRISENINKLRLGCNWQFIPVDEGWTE
Briefly: FACS, scFv on yeast.

The target of experiment [2] is T1, inactive BoNT/G (BoNT/Gi). Description: scFv on yeast.
Experiment [3] concerns the target T1, inactive BoNT/G (BoNT/Gi). Briefly: titration on yeast-displayed scFv, flow cytometry, fit y = m1 + m2*M0/(m0+m3). (In flow cytometry, cells or beads pass a laser one at a time.)
Experiment [4] addresses inactive BoNT/G (BoNT/Gi) (Clostridium botulinum) (UniProt Q60393). Description: flow cytometry, scFv on yeast.
Experiment [5] shares this target. Briefly: flow cytometry, scFv on yeast. The source holds these as a separate data set.
For experiment [6] the target is unchanged. Description: flow cytometry, scFv on yeast surface.
The target of experiment [7] is T1, inactive BoNT/G (BoNT/Gi). Briefly: scFv on yeast surface.
Experiment [8] has as its target T1, inactive BoNT/G (BoNT/Gi). Briefly: titration on yeast-displayed scFv, flow cytometry, fit y = m1 + m2*M0/(m0+m3). This is another data set of the same source.
Experiment [9] addresses T1, inactive BoNT/G (BoNT/Gi). The experiment is described as above. This is another data set of the same source.
The target of experiment [10] is T1, inactive BoNT/G (BoNT/Gi). Briefly: flow cytometry, scFv on yeast.
For experiment [11], the target named is inactive BoNT/G (BoNT/Gi) (Clostridium botulinum) (UniProt Q60393). Description: FACS, scFv on yeast.
Experiment [12] has the same target. Description: scFv on yeast surface.
Experiment [13] shares this target. Description: flow cytometry, scFv on yeast; against hu6G6 Wt.
Experiment [14] has the same target. Briefly: scFv on yeast.
Experiment [15] deals with T1, inactive BoNT/G (BoNT/Gi). Briefly: titration on yeast-displayed scFv, flow cytometry, fit y = m1 + m2*M0/(m0+m3). This is another data set of the same source.

Changes are numbered by the printed parent chain.

B1: hu6G11 scFv (scFv, V domains shown)
VH: QVQLVQSGAEVAKPGASVKMSCKASGYTFTSYWMHWVRQAPGQGLEWIGYINPSTGYTEYNQKFKDRATLTADKSTSTAYMELSSLRSEDTAVYYCARGYFSFAYWGQGTLVTVSS
VL: DIVMTQSPSSLSASVRDRVTITCQASHDIKNFLNWFQQKPGKAPKLLVYDASNLQVGVPSRFSASGYGTEFTLTISSLQPEDFATYYCQQANSFPRTFGQGTKVEIKR
Take B1: the Kd – broadly, the free concentration of one partner at which half of the binding sites on the other are occupied at equilibrium, for simple one-to-one binding – in [1] turned out to be 4.5 nM; in experiment [2], 4.57 nM. The “fold improvement in BoNT/Gi binding” value in experiment [2] came to 25 fold.

B2: 6G10 scFv (scFv, V domains shown)
VH: EVQLQQSGPELVKPGASVKISCKASGYSFTGYFMHWVKQSHVKSLEWIGRINPYNGDIIYNQNFKDKASLTVDKSSSTAYMELHSLTSEDSAVYYCASLFGLYYFDYWGQGTTLTVSS
VL: EIVLTQSPAIMSASPGEKVTMTCSASSSVSYMHWYQQKSGTSPKRWIYDTSKLASGVPARFSGSGSGTSYSLTISSMEAEDAATYYCQQWSSNPLTFGAGTKLELKR
Consider B2, for which the Kd in experiment [3] and in experiment [1] was 2.48 nM each time.

B3: hu6G9 scFv (scFv)
scFv: QVQLVQSGAEVKKPGASVKMSCKASGYTFTSYWMHWVRQAPGQGLEWIGYINPSTGYTEYNQKFKDRATLTADKSTSTAYMELRSLRSDDTAVYYCARGGNYVDYWGQGTTLTVSSVDLKSGGSTSGSGKPGSGEGSSGSARDIQMTQSPSTLSASVGERVTITCRASQGISSWLAWYQQKPGKAPKRLIYAVSTLQTGVPSRFSGSGSGTDLTLTINSLQPEDFATYYCQHLNSYPLTFGGGTKVEIK
In the case of B3, the Kd in [4] came out at 3.78 nM; in experiment [5], 18.8 nM; in experiment [6], 18.8 nM.

B4: 6G7.1 scFv (scFv, V domains shown)
VH: DVQLQESGPELVKPGASVKVSCKASDYSFTDYNIYWVKQSHGKSLEWIGYIDPYNGGTSYNQKFKGKATLTVDKSSSTAFMYLNSLTSEDSAVYYCALYGYDPDYIDYWGQGTTLTVSS
VL: QIVLTQSPAIMSASPGEKVTITCSASSSVSYLHWFQQKPGTSPKLWIYSTSNLASGVPARFSGSGSGTSYSLTISRMEAEDAATYYCQQRSSYPYTFGGGTKLEIKA
As for B4, the Kd in experiment [7] came out at 0.69 nM; in experiment [8], 0.27 nM; in experiment [1] it was 0.27 nM; in experiment [9], 1.29 nM; in experiment [10], 2.1 nM.

B5: 6G6 scFv (scFv, V domains shown)
VH: EVQLQQSGAELVKPGASVKLSCTASGFNIKDTYMHWVKQRPEQGLEWIGRIDPANGNTKYDPKFQGKATITADTSSNTAYLQLSSLTSEDTAVYYCASGPNYYGTTWFAYWGQGTTVTVSS
VL: QIVLTQSPAILSASPGEKVTMTCRASSSVSYMHWYQQKPGSSPRLWIYRTSNLASGVPARFSGSGSGTSYSLTISSMEAEDAATYYCQQYHSYPRTFGGGTKLEIKR
In experiment [7], B5 yielded a Kd of 17.7 nM.

B6: hu6G6.1 scFv (scFv)
scFv: QVQLVQSGAEVKKPGASVKLSCKASGFNIKDTYMHWVRQAPGQGLEWIGRIDPENGNTKYDPKFQGRATITAYKSINTAYLELSRLRSDDTAVYYCASGPNYYGTTWFAYWGQGTTVTVSSVDLKSGGSTSGSGKPGSGEGSSGSAREIVLTQSPSTLSASVGDRVTITCRASHGISNYLAWYQQKPGRAPKLLIYKASTLHIGVPSRFSGSGSGTEFALTISSLQPDDFSTYYCQQYNSYLPHTFGQGTRLEIK
B6: the Kd worked out at 3.4 nM in experiment [11], 4.27 nM in [5] and 1.15 nM in [12]. The Improvement over WT in experiment [13] was 5.5 fold.

B7: Hu6G6.2 scFv (scFv)
scFv: B6 scFv with T78R
Turning to B7, the Kd in [14] and in experiment [11] was 0.22 nM throughout.

B8: 6G9 scFv (scFv, V domains shown)
VH: EVQLQQSGDDLVKPGASVKMSCKASGYTFTSYWMHWVKQRPGQGLEWIGYINPSTGYTEYNQKFKDKATLTADKSSSTAYMQLSSLTSEDSAVYYCARGGNYVDYWGQGTTLTVSS
VL: EIVLTQSPAIMSASPGEKVTISCSASSSVSYMYWYQQKPGSSPKPWIYRTSNLASGVPARFSGSGSGTSYSLTISSMEAEDAATYYCQQWSSNPYTFGGGTKLEIKR
As for B8, the dissociation constant Kd in experiment [15] was 5.6 nM; in experiment [1] it was 18.8 nM.

B9: Hu6G7.2 scFv (scFv, V domains shown)
VH: QVQLVQSGAEVKKPGASVKVSCKASDYSFTDYNIYWVRQTPGQGLEWIGYIDPYNGGTSYNQKFKGRATLTVDKSISTAYMELSRLRSDDTAVYYCALYGYDPDYTEYWGQGTTLTVSS
VL: DIVLTQSPASMAVSPGQRVTITCSASSSVSYLHWFQQKPGQSPKLWIYSTSNLASGVPARFSGSGSGTDYTLTINPMEAEDTATYYCQQRSSYPYTFGQGTKLEIKR
As for B9, the results for the Kd in experiment [8], in experiment [1] and in experiment [9] were 1.42 nM, 1.42 nM and 3.93 nM, respectively.
